The values below come from article PMC2572860.

The target of the assay is apoMb samples (RNCs bearing apoMb nascent polypeptides of increasing length). Briefly: co-sedimentation.

DnaK, sequence (P0A6Y8 whole entry): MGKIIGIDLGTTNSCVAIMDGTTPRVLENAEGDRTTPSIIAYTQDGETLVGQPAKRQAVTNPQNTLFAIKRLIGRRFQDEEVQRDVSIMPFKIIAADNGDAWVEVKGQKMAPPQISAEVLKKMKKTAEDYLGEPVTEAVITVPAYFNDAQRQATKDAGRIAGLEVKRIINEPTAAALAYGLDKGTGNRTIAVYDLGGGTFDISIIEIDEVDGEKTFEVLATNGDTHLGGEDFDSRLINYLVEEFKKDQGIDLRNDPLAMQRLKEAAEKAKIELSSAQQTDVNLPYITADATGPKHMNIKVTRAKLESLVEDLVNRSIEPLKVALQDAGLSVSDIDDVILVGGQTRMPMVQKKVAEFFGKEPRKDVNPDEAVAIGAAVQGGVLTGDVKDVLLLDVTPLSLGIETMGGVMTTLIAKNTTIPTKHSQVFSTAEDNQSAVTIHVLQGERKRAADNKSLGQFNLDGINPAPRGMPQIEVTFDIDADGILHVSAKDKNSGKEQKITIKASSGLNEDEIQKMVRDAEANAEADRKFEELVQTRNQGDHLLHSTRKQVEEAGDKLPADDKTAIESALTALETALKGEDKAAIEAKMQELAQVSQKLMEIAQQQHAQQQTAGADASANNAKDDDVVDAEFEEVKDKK

Substance “DnaK (from UniProt P0A6Y8 1-638) (natural protein)” gave a DnaK concentration in the resuspended RNC pellet of 20 to 65 nM.
